Several values for one entry are separate records, joined by “and”; a condition that tells them apart may be missing. Identical values can stand only once.
Conditions: Homo sapiens; pH 7.82; 20 °C; GdnHCl; CD; sodium phosphate 50 mM; whole UniProt chain shown

B1: Thioredoxin-like protein 4A wild type, P83876 (protein)
chain: MSYMLPHLHNGWQVDQAILSEEDRVVVIRFGHDWDPTCMKMDEVLYSIAEKVKNFAVIYLVDITEVPDFNKMYELYDPCTVMFFFRNKHIMIDLGTGNNNKINWAMEDKQEMVDIIETVYRGARKGRGLVVSPKDYSTKYRY
With B1 the denaturant m value was 2.16 kcal/mol/M and 3.24 kcal/mol/M, the “denaturant midpoint (higher = more stable)” value was 3.39 M and 3.41 M and the unfolding free energy was 7.32 kcal/mol and 11.1 kcal/mol.

Source: FireProtDB (doi:10.1021/bi034486i)
